B1: Protein PTHB1 (Homo sapiens), Q3SYG4 (parent)
chain: MSLFKARDWWSTILGDKEEFDQGCLCLANVDNSGNGQDKIIVGSFMGYLRIFSPHPAKTGDGAQAEDLLLEVDLRDPVLQVEVGKFVSGTEMLHLAVLHSRKLCVYSVSGTLGNVEHGNQCQMKLMYEHNLQRTACNMTYGSFGGVKGRDLICIQSMDGMLMVFEQESYAFGRFLPGFLLPGPLAYSSRTDSFLTVSSCQQVESYKYQVLAFATDADKRQETEQQKLGSGKRLVVDWTLNIGEQALDICIVSFNQSASSVFVLGERNFFCLKDNGQIRFMKKLDWSPSCFLPYCSVSEGTINTLIGNHNNMLHIYQDVTLKWATQLPHIPVAVRVGCLHDLKGVIVTLSDDGHLQCSYLGTDPSLFQAPNVQSRELNYDELDVEMKELQKIIKDVNKSQGVWPMTEREDDLNVSVVVSPNFDSVSQATDVEVGTDLVPSVTVKVTLQNRVILQKAKLSVYVQPPLELTCDQFTFEFMTPDLTRTVSFSVYLKRSYTPSELEGNAVVSYSRPTDRNPDGIPRVIQCKFRLPLKLICLPGQPSKTASHKITIDTNKSPVSLLSLFPGFASQSDDDQVNVMGFHFLGGARITVLASKTSQRYRIQSEQFEDLWLITNELILRLQEYFEKQGVKDFACSFSGSIPLQEYFELIDHHFELRINGEKLEELLSERAVQFRAIQRRLLARFKDKTPAPLQHLDTLLDGTYKQVIALADAVEENQGNLFQSFTRLKSATHLVILLIALWQKLSADQVAILEAAFLPLQEDTQELGWEETVDAAISHLLKTCLSKSSKEQALNLNSQLNIPKDTSQLKKHITLLCDRLSKGGRLCLSTDAAAPQTMVMPGGCTTIPESDLEERSVEQDSTELFTNHRHLTAETPRPEVSPLQGVSE
partner: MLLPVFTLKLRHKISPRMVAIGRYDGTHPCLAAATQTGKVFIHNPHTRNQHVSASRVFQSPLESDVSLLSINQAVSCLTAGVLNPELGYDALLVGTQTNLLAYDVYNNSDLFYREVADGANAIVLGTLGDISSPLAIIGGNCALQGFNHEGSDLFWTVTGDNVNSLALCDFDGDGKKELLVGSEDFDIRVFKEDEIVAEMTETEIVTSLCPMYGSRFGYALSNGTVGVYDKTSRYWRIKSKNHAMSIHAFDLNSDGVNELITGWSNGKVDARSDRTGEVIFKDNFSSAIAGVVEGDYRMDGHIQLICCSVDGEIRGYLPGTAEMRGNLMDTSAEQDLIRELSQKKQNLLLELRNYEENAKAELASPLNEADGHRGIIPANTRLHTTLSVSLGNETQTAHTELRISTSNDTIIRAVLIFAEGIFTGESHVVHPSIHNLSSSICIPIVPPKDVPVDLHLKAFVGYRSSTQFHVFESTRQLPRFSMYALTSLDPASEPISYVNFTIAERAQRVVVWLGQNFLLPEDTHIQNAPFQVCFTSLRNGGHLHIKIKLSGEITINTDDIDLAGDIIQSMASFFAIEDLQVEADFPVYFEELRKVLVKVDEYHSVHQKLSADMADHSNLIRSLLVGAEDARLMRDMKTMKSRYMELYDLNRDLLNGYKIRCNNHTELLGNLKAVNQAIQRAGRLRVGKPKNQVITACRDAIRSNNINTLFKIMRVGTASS

Variants of: B1
Conditions: with bbs2_human BBS2, Q9BXC9

Variant | effect of a mutation on the interaction
L536K | with no effect
R876A | with no effect
F582E | with no effect
I776A | with no effect
F673A | with no effect
S745A | with no effect
D572E | with no effect
T595E | with no effect
R669K | with no effect
R669A | with no effect
T874E | with no effect
L808E | disrupting interaction strength
R600K | with no effect
L799A | with no effect
L819K | with no effect
Q722E | with no effect
A567K | with no effect
G842A | with no effect
G842K | with no effect
L795A | with no effect
T552A | with no effect
T552K | with no effect
I812E | with no effect

Variant | effect of a mutation on the interaction
Y508K | with no effect
T725K | with no effect
H581Y | disrupting interaction strength
V505A | with no effect
V505K | with no effect
L533K | with no effect
Q791E | with no effect
N716E | with no effect
N716A | disrupting interaction strength
V415A | with no effect
Q693A | with no effect
F487K | with no effect
S667A | with no effect
S667E | with no effect
Q883K | with no effect
I801K | with no effect
K789E | with no effect
C535K | with no effect
G718D | disrupting interaction strength
L665K | with no effect
D830E | with no effect
V424K | with no effect
V424E | with no effect

Variant | effect of a mutation on the interaction
H651A | with no effect
V432K | with no effect
L467A | with no effect
P689E | with no effect
L642A | with no effect
V485E | with no effect
S494E | with no effect
T482E | with no effect
F476E | with no effect
F476A | with no effect
V417K | with no effect
F636A | with no effect
S635K | with no effect
E887A | with no effect
N576A | with no effect
R514A | with no effect
Q858A | with no effect
E431A | with no effect
V856E | with no effect
K456A | with no effect
C816E | with no effect
L699E | with no effect
P419A | with no effect

Variant | effect of a mutation on the interaction
D410E | with no effect
S788K | with no effect
T434K | with no effect
T813K | with no effect
T589A | with no effect
G502E | with no effect
I451K | with no effect
A739E | with no effect
K492E | with no effect
H869K | with no effect
K454E | with no effect
Q764A | with no effect
G579K | with no effect
L491K | with no effect
T763E | with no effect
W741A | disrupting interaction strength
L436K | with no effect
V450E | with no effect
G659K | with no effect
P758K | with no effect
L736A | with no effect
L736K | with no effect
H778A | with no effect

Variant | effect of a mutation on the interaction
P875K | with no effect
S723A | with no effect
G884E | with no effect
R674E | with no effect
I548A | with no effect
T771E | with no effect
E664K | with no effect
Q605E | with no effect
Q569A | with no effect
S507K | with no effect
L529E | with no effect
D551K | with no effect
D551E | with no effect
A710E | with no effect
V590K | with no effect
A690K | with no effect
E714A | with no effect
S545E | with no effect
E761K | with no effect
N866K | with no effect
S797E | with no effect
H867E | with no effect
S596E | with no effect

Variant | effect of a mutation on the interaction
S596K | with no effect
R493A | with no effect
R493E | with no effect
R493K | with no effect
Y599K | with no effect
Y599E | with no effect
T861K | with no effect
N412K | with no effect
L720A | with no effect
G767A | with no effect
Q705K | with no effect
A633K | with no effect
L827A | disrupting interaction strength
S509K | with no effect
I588A | with no effect
D817A | with no effect
V706E | with no effect
D571K | with no effect
D571E | with no effect
Y703E | with no effect
S785E | with no effect
R483E | with no effect
V444E | with no effect

Variant | effect of a mutation on the interaction
I735E | with no effect
I735K | with no effect
D429E | with no effect
L815K | with no effect
L815A | with no effect
F721E | with no effect
R656A | with no effect
L618A | with no effect
L618E | with no effect
A675E | with no effect
S777K | with no effect
P530K | with no effect
S820A | with no effect
G538A | with no effect
V629E | with no effect
L457K | with no effect
L457E | with no effect
A755E | with no effect
T805I | disrupting interaction strength
I707E | with no effect
F527A | with no effect
A831K | with no effect
T549A | with no effect

Variant | effect of a mutation on the interaction
T845A | with no effect
P564E | with no effect
I550K | with no effect
T844E | with no effect
T844A | with no effect
H811E | with no effect
E857K | with no effect
R521K | with no effect
S639A | with no effect
Q462E | with no effect
Q462Y | disrupting interaction strength
K532E | with no effect
S439A | with no effect
R587E | with no effect
S570K | with no effect
I617A | with no effect
V749E | with no effect
Q717K | with no effect
D422K | with no effect
T731A | with no effect
P641A | with no effect
K704A | with no effect

Variants of: B1
Conditions: with bbs2_human BBS2, Q9BXC9
Remark: another data set of the same source

Variant | effect of a mutation on the interaction
W741A | with no effect

— IntAct's records for PubMed 29039417
